Results from paper doi:10.1101/2024.10.06.616851.

Target: intracellular (IC) wildtype penton of ASFV, HA-tagged (African swine fever virus (ASFV) Georgia 2007/1) (UniProt Q65190)
Experiment: non-reducing SDS-PAGE with Western blot

## intracellular (IC) wildtype penton of ASFV, HA-tagged (from UniProt Q65190 1-240) (natural protein)
  percent pentamer: 30%
  stoichiometry N: 5
